Where no end group is shown, it is not given here. [ ]: non-standard residue; d: D form. The star is where a group is joined. Ala(3-Me-diazirin-3-yl) = CC1(C[C@H](N)C(=O)O)N=N1; Hexadecanesulfonyl = CCCCCCCCCCCCCCCCS(=O)(=O)*; 2Nal = N[C@@H](Cc1ccc2ccccc2c1)C(=O)O; Palmitoyl = CCCCCCCCCCCCCCCC(=O)*; Hyp = O=C(O)[C@@H]1C[C@@H](O)CN1; Cit = NC(=O)NCCC[C@H](N)C(=O)O; code z = not defined here; hSer = N[C@@H](CCO)C(=O)O; Nle = CCCC[C@H](N)C(=O)O; Pra = C#CC[C@H](N)C(=O)O; Dap = NC[C@H](N)C(=O)O

Consider 34 molecules from patent publication US20130005944A1 (ANCHOR THERAPEUTICS, published 2013).

This assay deals with CXCR4 receptor (human, UniProt P61073 1-352). Nature of the assay: cell-based or functional assay.
CXCR4 receptor, sequence (P61073 whole entry): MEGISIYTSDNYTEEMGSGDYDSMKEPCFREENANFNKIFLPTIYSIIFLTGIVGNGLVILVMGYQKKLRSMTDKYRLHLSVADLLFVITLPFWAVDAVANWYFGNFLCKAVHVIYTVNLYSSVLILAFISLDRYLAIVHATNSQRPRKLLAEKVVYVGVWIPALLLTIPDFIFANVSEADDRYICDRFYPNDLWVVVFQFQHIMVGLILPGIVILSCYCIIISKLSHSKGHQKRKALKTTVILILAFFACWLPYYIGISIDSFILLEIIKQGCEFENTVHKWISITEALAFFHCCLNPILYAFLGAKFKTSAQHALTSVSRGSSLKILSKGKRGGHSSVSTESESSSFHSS
Regarding Pal-MGYQKKLRS[dP]MTDKYRL [Compound No. 9 (Pal-MGYQKKLRSpMTDKYRL)], the “% Intrinsic Activity, calcium flux, CEM cells (Flexstation)” value (“% Intrinsic Activity, calcium flux” below) was determined as 77.9% and the “EC50 (nM), calcium flux, CEM cells, agonist mode (Flexstation)” value (“EC50 (nM), calcium flux … (Flexstation)” below) turned out to be 123 nM.

On to Pal-MGYQKKLRSMTDKYR[Nle] [Compound No. 12 (Pal-MGYQKKLRSMTDKYR(Nle))], for which the “% Intrinsic Activity, calcium flux” value came out at 73.2% and the “EC50 (nM), calcium flux … (Flexstation)” value turned out to be 249 nM.

Regarding Pal-MGYQKKLRSMTDKY[Cit]L [Compound No. 14 (Pal-MGYQKKLRSMTDKY(Cit)L)], the “% Intrinsic Activity, calcium flux” value was 3.61% and the “EC50 (nM), calcium flux … (Flexstation)” value is 10000 nM.

Turning to Pal-MGYQKKLRSMTDK[2Nal]RL [Compound No. 16 (Pal-MGYQKKLRSMTDK(Nal)RL)], the “% Intrinsic Activity, calcium flux” value is 34.4% and the “EC50 (nM), calcium flux … (Flexstation)” value was 3020 nM.

On to Palmitoyl-CGYQKKLRSATDKYRL (not fully specified) [Compound No. 30 (Pal-CGYQKKLRSATDKYRL)], for which the “% Intrinsic Activity, calcium flux” value came out at 95.3% and the “EC50 (nM), calcium flux … (Flexstation)” value was determined as 144 nM.

Take Pal-[hSer]GYQKKLRS[hSer]TDKYRL [Compound No. 22 (Pal-xGYQKKLRSxTDKYRL)]: the “% Intrinsic Activity, calcium flux” value came to 77.7% and the “EC50 (nM), calcium flux … (Flexstation)” value came out at 125 nM.

Regarding Pal-[Pra]GYQKKLRSMTDKYRL [Compound No. 24 (Pal-(Pra)GYQKKLRSMTDKYRL)], the “% Intrinsic Activity, calcium flux” value stood at 76.6% and the “EC50 (nM), calcium flux … (Flexstation)” value turned out to be 267 nM.

As for {3‑(dodecyloxy)propanoate}-GGYQKKLRSATDKYRL (not fully specified (C-terminus)) [Compound No. 31 (3-(dodecyloxy)propanoate-GGYQKKLRSATDKYRL)], the “% Intrinsic Activity, calcium flux” value stood at 84.2% and the “EC50 (nM), calcium flux … (Flexstation)” value came to 154 nM.

Regarding Pal-GGYQKKLR[dP][dP]HTDKYRL [Compound No. 32 (Pal-GGYQKKLRppHTDKYRL)], the “% Intrinsic Activity, calcium flux” value came to 91.1% and the “EC50 (nM), calcium flux … (Flexstation)” value stood at 73.2 nM.

In the case of Palmitoyl-MGYQKKLPRSMTDKYRL (not fully specified) [Compound No. 7 (Pal-MGYQKKLPRSMTDKYRL)], the “% Intrinsic Activity, calcium flux” value was 100% and the “EC50 (nM), calcium flux … (Flexstation)” value was determined as 153 nM.

As to Palmitoyl-MGYQKKLRSMTDKYRV (not fully specified) [Compound No. 11 (Pal-MGYQKKLRSMTDKYRV)], the “% Intrinsic Activity, calcium flux” value was 61.7% and the “EC50 (nM), calcium flux … (Flexstation)” value turned out to be 1320 nM.

For Palmitoyl-MGYQKKLRSMTDKFRL (not fully specified) [Compound No. 15 (Pal-MGYQKKLRSMTDKFRL)], the “% Intrinsic Activity, calcium flux” value is 81.5% and the “EC50 (nM), calcium flux … (Flexstation)” value was 135 nM.

In the case of Pal-GGYQKKLR[Hyp]HTDKYRL [Compound No. 35 (Pal-GGYQKKLR(Hyp)HTDKYRL)], the “% Intrinsic Activity, calcium flux” value came to 89.4% and the “EC50 (nM), calcium flux … (Flexstation)” value was found to be 45 nM.

With Pal-GYQKKLRS[Nle]TDKYRI [Compound No. 20 (Pal-GYQKKLRS(Nle)TDKYRI)], the “% Intrinsic Activity, calcium flux” value came to 62.5% and the “EC50 (nM), calcium flux … (Flexstation)” value was found to be 232 nM.

In the case of Pal-GGYQKKLR[dP]ATDKFRL [Compound No. 29 (Pal-GGYQKKLRpATDKFRL)], the “% Intrinsic Activity, calcium flux” value stood at 88.9% and the “EC50 (nM), calcium flux … (Flexstation)” value was found to be 26.3 nM.

Regarding Palmitoyl-GGYQKKLRTATDKYRL (not fully specified) [Compound No. 41 (Pal-GGYQKKLRTATDKYRL)], the “% Intrinsic Activity, calcium flux” value is 149% and the “EC50 (nM), calcium flux … (Flexstation)” value was 106 nM.

Take Pal-GGYQKKLR[dP][Hyp]TDKYRL [Compound No. 36 (Pal-GGYQKKLRp(Hyp)TDKYRL)]: the “% Intrinsic Activity, calcium flux” value amounted to 55.2% and the “EC50 (nM), calcium flux … (Flexstation)” value worked out at 603 nM.

On to Pal-GGYQKK[Ala(3-Me-diazirin-3-yl)]RSATDKYRL [Compound No. 37 (Pal-GGYQKK(photoLeu)RSATDKYRL)], for which the “% Intrinsic Activity, calcium flux” value was determined as 85.7% and the “EC50 (nM), calcium flux … (Flexstation)” value was found to be 71.2 nM.

With Pal-GGYQKKLR[dP]HTDKYRL [Compound No. 26 (Pal-GGYQKKLRpHTDKYRL)], the “% Intrinsic Activity, calcium flux” value worked out at 91.2% and the “EC50 (nM), calcium flux … (Flexstation)” value worked out at 55.2 nM.

Hexadecanesulfonyl-GGYQKKLR[dP]HTDKYRL-NH2 (also: table lists the lipid as 'Pal') [Compound No. 46 (CH3(CH2)15SO2-GGYQKKLRpHTDKYRL-amide)]: the “EC50 (nM), calcium flux, CEM cells, agonist mode (FLIPR)” value was 12.5 nM.

Take Pal-GGYQKKLR[dP][Dap]TDKYRL [Compound No. 34 (Pal-GGYQKKLRp(Dpr)TDKYRL)]: the “% Intrinsic Activity, calcium flux” value is 103% and the “EC50 (nM), calcium flux … (Flexstation)” value was 89 nM.

On to Palmitoyl-MGYQKKLRSGTDKYRL (not fully specified) [Compound No. 19 (Pal-MGYQKKLRSGTDKYRL)], for which the “% Intrinsic Activity, calcium flux” value was determined as 101% and the “EC50 (nM), calcium flux … (Flexstation)” value came out at 370 nM.

Turning to Pal-MGYQKKLRS[Nle]TDKYRL [Compound No. 17 (Pal-MGYQKKLRS(Nle)TDKYRL)], the “% Intrinsic Activity, calcium flux” value was 62.7% and the “EC50 (nM), calcium flux … (Flexstation)” value turned out to be 208 nM.

In the case of Pal-[code z]GYQKKLRS[code z]TDKYRL (not fully specified; printed as Pal-zGYQKKLRSzTDKYRL; reading uncertain) [Compound No. 23 (Pal-zGYQKKLRSzTDKYRL)], the “% Intrinsic Activity, calcium flux” value is 87.2% and the “EC50 (nM), calcium flux … (Flexstation)” value came to 83 nM.

Take Palmitoyl-MGYQKKLRSHTDKYRL (not fully specified) [Compound No. 18 (Pal-MGYQKKLRSHTDKYRL)]: the “% Intrinsic Activity, calcium flux” value came to 93.4% and the “EC50 (nM), calcium flux … (Flexstation)” value worked out at 110 nM.

As for Palmitoyl-MGYQKPLRSMTDKYRL [Compound No. 6 (Pal-MGYQKPLRSMTDKYRL)], the “% Intrinsic Activity, calcium flux” value came to 90.2% and the “EC50 (nM), calcium flux … (Flexstation)” value stood at 161 nM.

For Palmitoyl-GGYQKKLRSATDKYRLH (not fully specified) [Compound No. 40 (Pal-GGYQKKLRSATDKYRLH)], the “% Intrinsic Activity, calcium flux” value amounted to 78.7% and the “EC50 (nM), calcium flux … (Flexstation)” value stood at 297 nM.

Take Pal-GGYQKKLR[dP]WTDKYRL [Compound No. 33 (Pal-GGYQKKLRpWTDKYRL)]: the “% Intrinsic Activity, calcium flux” value is 93% and the “EC50 (nM), calcium flux … (Flexstation)” value worked out at 109 nM.

Take Palmitoyl-MGYQKKLRPSMTDKYRL (not fully specified) [Compound No. 8 (Pal-MGYQKKLRPSMTDKYRL)]: the “% Intrinsic Activity, calcium flux” value is 88% and the “EC50 (nM), calcium flux … (Flexstation)” value turned out to be 169 nM.

Palmitoyl-GGYQKKLRSATDKYRL (not fully specified (C-terminus)) [Compound No. 25 (Pal-GGYQKKLRSATDKYRL)]: the “% Intrinsic Activity, calcium flux” value turned out to be 89.4% and the “EC50 (nM), calcium flux … (Flexstation)” value was 36.8 nM.

In the case of Pal-GGYQKK[dP]R[dP]ATDKYRL [Compound No. 28 (Pal-GGYQKKpRpATDKYRL)], the “% Intrinsic Activity, calcium flux” value is 107% and the “EC50 (nM), calcium flux … (Flexstation)” value came to 25 nM.

Palmitoyl-MGYQKKLRSMTDKYKL (not fully specified) [Compound No. 13 (Pal-MGYQKKLRSMTDKYKL)]: the “% Intrinsic Activity, calcium flux” value was 61.4% and the “EC50 (nM), calcium flux … (Flexstation)” value is 194 nM.

Regarding Pal-GGYQKKLR[dP]ATDKYRL [Compound No. 27 (Pal-GGYQKKLRpATDKYRL)], the “% Intrinsic Activity, calcium flux” value was 111% and the “EC50 (nM), calcium flux … (Flexstation)” value is 85.9 nM.

In the case of Palmitoyl-GGYQKKHRSATDKYRL (not fully specified) [Compound No. 38 (Pal-GGYQKKHRSATDKYRL)], the “% Intrinsic Activity, calcium flux” value came to 86.8% and the “EC50 (nM), calcium flux … (Flexstation)” value was found to be 27 nM.
